Measurements from article PMC6803640, “Oligomeric state, hydrodynamic properties and target recognition of human Calcium and Integrin Binding protein 2 (CIB2)” (Scientific Reports, 2019).
Entries after “also recorded” stand apart in the source; their conditions may differ.

Tests used:
[1] = reducing conditions, different cation-bound states; cited from earlier work
Excerpt: Moreover, DLS experiments performed with the samples collected immediately after elution from the SEC column measured a relatively high hydrodynamic diameter (d^Mg = 8.43 nm and d^Ca = 8.18 nm), which was also interpreted as an evidence of a dimeric protein[8]. […] According to a calibration curve obtained with globular proteins of known MW, these bands would correspond to an apparent MW (MW^SEC) of 35.9 kDa in the absence and of 36.7 kDa in the presence of the cross-linker, thus very similar to those obtained in our previo ...

human CIB2 = molecular target: T1, human CIB2 (Homo sapiens, UniProt O75838); assay: SPR CIB2 dimerization; assay type: binding; conditions: amine-coupled CIB2 (130 RU and 226 RU), CIB2 92 nM – 46 μM injected; Ca^2+ and Mg^2+
T1 construct: made in house
T1 sequence (O75838 1-187): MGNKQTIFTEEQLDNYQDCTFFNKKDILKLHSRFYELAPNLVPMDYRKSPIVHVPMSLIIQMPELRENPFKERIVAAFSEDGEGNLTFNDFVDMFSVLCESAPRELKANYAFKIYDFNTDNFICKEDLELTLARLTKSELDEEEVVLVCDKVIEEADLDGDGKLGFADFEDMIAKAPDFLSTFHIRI
Excerpt: SPR is a powerful and versatile technique to detect at real time biomolecular interactions, and it can be applied to study protein oligomerization, in particular dimerization, when care is taken to immobilize on the surface of a sensor chip low amounts of proteins under controlled conditions[27]–[29]. Two independent experiments were run following low levels of amine-coupling of CIB2 (130 RU and 226 RU, respectively) on the surface of a sensor chip. […]
by summing the volume of each residue and correcting the final volume for electrostriction as explained in Ref.4, therefore the specific volume for Rec, CaM and CIB2 were 0.712, 0.694 and 0.715 cm3/g respectively. The molecular weight used for the estimation of hydrodynamic diameter was calculated based on the effective protein sequence of each pdb file using Protein Calculator 3.4 (http://protcalc.sourceforge.net/).
Surface plasmon resonance analysis
A SensiQ Pioneer surface plasmon resonance instrument (FortéBio Pall) was employed for the investigation of the CIB2 dimerization and for the real-time monitoring of its interaction with selected peptides. For studies of on-chip CIB2 dimerization, HBS buffer (20 mM HEPES, pH 7.5, 150 mM KCl, 1 mM MgCl2, 50 µM EDTA, 0.005% Tween 20), was used both as immobilization and running buffer, with the addition of fresh 1 mM DTT just before each experiment. […]

B1: CIB2: Recombinant human CIB2, Ca^2+ and Mg^2+-binding protein (protein)
chain: T1 sequence (O75838 1-187)
modifications: left off: His tag, end not stated, cleaved
- apparent MW (MW^SEC), previous work [1]: 37–39 kDa
- dimerization signal by SPR (human CIB2): sensorgrams, except for some non-specific bulk effect; also recorded: In no case was a signal detected; also recorded: SPR did not detect dimerization
